{"source": "the DeepSol protein solubility set"}
{"assay": "soluble on expression in E. coli; label from the status in PepcDB or PDB records"}
{"sequence": "MGSDKIHHHHHHMSQLLIKNAYLITMNADREVYENGSILIENNIIKEVGKFDINIVDKDAEIYDAKGKILMPGLVNTHVHLSQQLGRGLADDVVLLTWLRERIWPYESSFNYEDSLISSTACCVELIKSGVTTFLESGGQYVDAMVEAVDKTGLRACLAKSVMDTGDGLPEAWQKTTDEEINTQLDLFHKFNNTSNERIKIWFALRTIFNTTEELLVRTKELADKYNTGIHMHIAEIADEISFVKQNNGVGTVEYLDKLGVLGPNLLAAHTVWLTHKEIDLFRLHDVKVSHDPGSAMKVVLGFASIPEMLEKGIPVSIGTDGAPSNNRMDLMRDMYLTSLIHKGRTLNPTVVPAEEVLEMATINGAKCALLEKEIGSLEVGKKADMIILNPDTIHCLPMHNPIGNIVYSMTSENVDSTICDGKWLMKERKVLVVDESELLNKVKKQASKIKDKAEVKIPSKFKIIK", "soluble on expression in E. coli": "not soluble"}
{"sequence": "MGSSHHHHHHSSGLVPRGSHMFANDATFEIKKCDLHRLEEGPPVTTVLTREDGLKYYRMMQTVRRMELKADQLYKQKIIRGFCHLCDGQEACCVGLEAGINPTDHLITAYRAHGFTFTRGLSVREILAELTGRKGGCAKGKGGSMHMYAKNFYGGNGIVGAQVPLGAGIALACKYNGKDEVCLTLYGDGAANQGQIFEAYNMAALWKLPCIFICENNRYGMGTSVERAAASTDYYKRGDFIPGLRVDGMDILCVREATRFAAAYCRSGKGPILMELQTYRYHGHSMSDPGVSYRTREEIQEVRSKSDPIMLLKDRMVNSNLASVEELKEIDVEVRKEIEDAAQFATADPEPPLEELGYHIYSSDPPFEVRGANQWIKFKSVS", "soluble on expression in E. coli": "soluble"}
{"sequence": "MAVLAVVLLLACLERAVAQTFGCSNTKINDQARKMFYDAHNDARRSMAKGLEPNKCGLLSGGKNVYELNWDCEMEAKAQEWADGCPSSFQTFDPTWGQNYATYMGSIADPLPYASMAVNGWWSEIRTVGLTDPDNKYTNSAMFRFANMANGKASAFGCAYALCAGKLSINCIYNKIGYMTNAIIYEKGDACTSDAECTTYSDSQCKNGLCYKAPQAPVVETFTMCPSVTDQSDQARQNFLDTHNKLRTSLAKGLEADGIAAGAFAPMAKQMPKLKYSCTVEANARTWAKGCLYQHSTSAQRPGLGENLYMISINNMPKIQTAEDSSKAWWSELKDFGVGSDNILTQAVFDRGVGHYTQMAWEGTTEIGCFVENCPTFTYSVCQYGPAGNYMNQLIYTKGSPCTADADCPGTQTCSVAEALCVIP", "soluble on expression in E. coli": "not soluble"}
{"sequence": "MKFFSAAAFVAALVASGNACIGGGAGGAGGCCPPAQPGCGNPCQGAGPQYAAAPPPPPQYAAAPQGGAYPTAGK", "soluble on expression in E. coli": "not soluble"}
{"sequence": "MTADRTGHCLCGGVQIAVATVSHEIGACHCEMCRRWTGSAFVTMMVPEAAMTVTGAEHVKAYASSAWAERCFCGSCGSTLWYRLTGPGMPRDYYMAAGLLDDLSGIRLAHEIYIDRKPDAWSFAGPTHQMTEAEFLATLPASPEE", "soluble on expression in E. coli": "not soluble"}
{"sequence": "MASISSLGVGSNLPLDQLLTDLTKNEKGRLTPITKQQSANSAKLTAYGTLKSALEKFQTANTALNKADLFKSTVASSTTEDLKVSTTAGAAAGTYKINVTQLAAAQSLATKTTFATTKEQLGDTSVTSRTIKIEQPGRKEPLEIKLDKGDTSMEAIRDAINDADSGIAASIVKVKENEFQLVLTANSGTDNTMKITVEGDTKLNDLLAYDSTTNTGNMQELVKAENAKLNVNGIDIERQSNTVTDAPQGITLTLTKKVTDATVTVTKDDTKAKEAIKSWVDAYNSLVDTFSSLTKYTAVEPGEEASDKNGALLGDSVVRTIQTGIRAQFANSGSNSAFKTMAEIGITQDGTSGKLKIDDDKLTKVLKDNTAAARELLVGDGKETGITTKIATEVKSYLADDGIIDNAQDNVNATLKSLTKQYLSVSNSIDETVARYKAQFTQLDTMMSKLNNTSSYLTQQFTAMNKS", "soluble on expression in E. coli": "not soluble"}
{"sequence": "MAHHHHHHMGAKILTKIQREKLVEWENCVSVIEAAILKHKYKQKVNKNIPSLLRVQAHIRKKMV", "soluble on expression in E. coli": "not soluble"}
{"sequence": "VSGTRPAARRTNLTAAQNVVRSVDAEERIAWVSKALCRTTDPDELFVRGAAQRKAAVICRHCPVMQECAADALDNKVEFGVWGGMTERQRRALLKQHPEVVSWSDYLEKRKRRTGTAG", "soluble on expression in E. coli": "soluble"}
{"sequence": "MWPTHDLPILSNKSLILRKLQIEDTPRLVELAQDPAMRNFTTIPSPFTVENALEFISSSSVPTDSLVRWAIATADKPSIYLGTIELRAQSPICVDIGYSLHPHARGLGIMPKAVRLVSNYALSVGFHRVEIKIRTSNVASRRATERARATFEGIAHKAELHRGSIYDLAIYSITS", "soluble on expression in E. coli": "not soluble"}
{"sequence": "MGSDKIHHHHHHMKIGVFVPIGNNGWLISTHAPQYMPTFELNKAIVQKAEHYHFDFALSMIKLRGFGGKTEFWDHNLESFTLMAGLAAVTSKIQIYATAATLTLPPAIVARMASTIDSISGGRFGVNLVTGWQKPEYDQMGMWPGDDYFASRYDYLTEYVQVLRDLWGTGRSDFKGDYFTMNDCRVSPRPSQPMKVICAGQSDAGMAFSAQHADYNFCFGKGVNTPTAFAPTAARMMQAAEKTGRDVGSYVLFMVIADETDEAARAKWEHYKAGADEEALAWLTEQSQKDTRSGSDTNVRQMADPTSAVNINMGTLVGSYASVARMLDEVASVPGTDGVLLTFDDFLAGIDAFGERIQPLMRCRNHIASVTREVA", "soluble on expression in E. coli": "not soluble"}
{"sequence": "MGSDKIHHHHHHMAKVRKEDKLPLRMKQLGKIYRLIEQFEEISRIDLSKLSQLAPATITSLTRELIEKKLVIERAVQNTENRGRPAVGLCVSPFYWQSLCATLTYDHFDILLCELDGTTIAQEVYPLDLSDLSSLEQMLPCYFEDFLSKVGTKLSRPITFSIAVAGKLHHLSGFLQRLGEIELNVDLTSLFAGYFDIPIIVTEYFETWLLAESTLGSVIGYDDVIFLQIDDVINLSVLSKGVILQSDHKTCMNIDQIIVPRLYPMQDKINQHLFELERYQIHNQLTYKAFCQFIDLYYPNNNLINTTEKINFLCKKAQLQDPLALEILANIADIIAYILSNLVNLFSPEKIMFTSRLLSVKHVFLNQINQRLAHYLHNSKICEVMTSQYEWNSHEVIAAAIKQKIYDGSLLVYMEKY", "soluble on expression in E. coli": "not soluble"}
{"sequence": "MATKARVMYDFAAEPGNNELTVTEGEIITVTNPNVGGGWLEGKNNKGEQGLVPTDYVEILPNDGKDPFSC", "soluble on expression in E. coli": "soluble"}
{"sequence": "MTTPRWLTQDEQSLWRLFLAMERKVTRGIDEELQSSQGLTTPEFSVLVSLSERPGHEIRLRDLCESLQWDRSRTSHQITRMQRRGLVTKTKCSDDARGVFVELTPEGEKRLREAAPGHVDVVRKLIFDVMTEEEAAVLRGYFQKVIDVQCGASTGNPLDD", "soluble on expression in E. coli": "not soluble"}
{"sequence": "MSLYISSALGPVDSGNKKEIEVEIPKGSSTSKIGEILEEKGAVKSGTVFSFYTKAKSKNLQAGTYLLNPSMSAKDVMEQMSSGNVHRPALYKVTIKEGAQVTEIAETVANELKWNKDDVVRQLNDKAFIQKMQQKYPKLLTDKIFDSNIKYPLEGYLYPATYSFYKKDTTLEEVVIPMLEKTNAIIVQNEAKMKAKNWDVHQLLTLSSLIEEEATGFTDRQKISSVFYNRLAKGMPLQTDPTVLYALGKHKQRVLYEDLKVNSPYNTYVVKGLPVGPIANSGKHSVEAALEPTQTDYYYFLAAPTGEVYYAKTLEEHNALKQKYITKKQEGHHHHHH", "soluble on expression in E. coli": "soluble"}
{"sequence": "MSLKTIAFDSNKYLNLQRDHILERISQFDGKLYMEFGGKMLEDYHAARVLPGYEPDNKIKLLKELKEQVEIVIAINANNIEHSKARGDLGISYDQEVFRLIDKFNTLDIYVGSVVITQYNNQPAADAFRKQLEKNGIASYLHYPIKGYPTDINHIISSEGMGKNDYIKTSRNLIVVTAPGPGSGKLATCMSQMYHDQINGVKSGYAKFETFPVWNLPLHHPVNLAYEAATADLDDVNMIDPFHLETYGKTAVNYNRDIEVFPVLNRTFERILSKSPYASPTDMGVNMVGFSIVNEEAAIEASKQEIIRRYYQTLVDFKAERVTESAVKKIELLMNDIGVTPDDRHVTVAAHQKAEQTGQPALALQLPNGQIVTGKTSGLFGPTAAVIINAIKTLAKIDKTTHLIEPEYVKPIQGLKVNHLGSHNPRLHSNEILIALAITAMTSEEANLAMKELGNLKGSEAHSTVILTEEDKNVLRKLGVNITFDPVYQHHKLYRKEGHHHHHH", "soluble on expression in E. coli": "soluble"}
{"sequence": "MSLRYIVALTGGIGSGKSTVANAFADLGINVIDADIIARQVVEPGAPALHAIADHFGANMIAADGTLQRRALRERIFANPEEKNWLNALLHPLIQQETQHQIQQATSPYVLWVVPLLVENSLYKKANRVLVVDVSPETQLKRTMQRDDVTREHVEQILAAQATREARLAVADDVIDNNGAPDAIASDVARLHAHYLQLASQFVSQEKPEGGSHHHHHH", "soluble on expression in E. coli": "soluble"}
{"sequence": "MSLIYAQILAGGKGTRMGNVSMPKQFLPLNGKPIIVHTVEKFILNTRFDKILISSPKEWMNHAEDNIKKYISDDRIVVIEGGEDRNETIMNGIRFVEKTYGLTDDDIIVTHDAVRPFLTHRIIEENIDAALETGAVDTVIEALDTIVESSNHEVITDIPVRDHMYQGQTPQSFNMKKVFNHYQNLTPEKKQILTDACKICLLAGDDVKLVKGEIFNIKITTPYDLKVANAIIQERIANEGHHHHHH", "soluble on expression in E. coli": "soluble"}
{"sequence": "MSNFMVENQTEQVSIFLEDAINLITNYVNYHTLPSLLEETPAGNERYYKGLLASMRRLLVFCEEGQDACFVLLNSQPFRKTAAEKILYKIYHQVIAEFFSPKSDHWYENSRSAYTGKNSIVFQQTPPASLEQVMKSLEGKFQLMREELEYYETDYQTKMLHKY", "soluble on expression in E. coli": "not soluble"}
{"sequence": "MSVEKIPGYTYGETENRAPFNLEDLKLLKEAVMFTAEDEEYIQKAGEVLEDQVEEILDTWYGFVGSHPHLLYYFTSPDGTPNEKYLAAVRKRFSRWILDTSNRSYDQAWLDYQYEIGLRHHRTKKNQTDNVESVPNIGYRYLVAFIYPITATMKPFLARKGHTPEEVEKMYQAWFKATTLQVALWSYPYVKYGDF", "soluble on expression in E. coli": "soluble"}
{"sequence": "MGSDKIHHHHHHMSNPLLKQICELDVFTLLVFKSIFDNGHANSAAKALNVSAPKISRCLNALRLTFNDELFYRRQQGLKPTPLAESLYVAICQFTDAVHHLEQSALQLQHSASHVELPLHIAASNGLLSFLAPQLSSPEVISELGQIRLHKWQDNSAELIHAGELDLGITQEPVETKELTITHLGSIASVYIVASKHHPLWESQFDITLEQICRHSFLCLEMKGFNARIDPLELFCQRQGLLLPSIERVIDREEWYAHLLTMQSVAFCSSIDMHTVKHMPGLKLVPLSVSELHRLHETIMPPQYFLIEKPRSHRRYNQTQCELVVRSWLTVLSSNSRVSQ", "soluble on expression in E. coli": "not soluble"}
{"sequence": "MAHHHHHHMYDDVEVRRREEARQHTAASLIQRRWREHAERRSLEQDAAPLRGTGGNGVLLVASDAFGDVVGRRGGETDEALRPLKSDGFDELAQTVQTPEEKRRACVEEYRALLAKRKALLENNLVYQQLLSRHYAEQRRRNGEDEVAQLTTPDAEAAYWALVRQVAEERQRVAARSTALKKDLELQRQRYEPIMEEAATQERNFQQYIQELAASVRFMRSNRPIPTEAIEKYIELEAVQRSAIHASRVRYLQLKNRLLRLRRVAKGGAALSSSAPTATAAATGQDGEESNAANHHMFLIDFEQLKVENTSLNEKIEERSEEVLKLRNKVTNTIHIATHVREKLDCVRAENAELRQHVASTDEELGGARDQLAKSKRRRDAHLRANTRMKERMPLVGSRDLLMDYEKRKAVIYNYRTRLVQLTDRHKELTDSIKKEESTIVSLQHELSHYPK", "soluble on expression in E. coli": "not soluble"}
